Experimental findings from patent US11549134B2, “Modified amadoriase and method for producing the same, agent for improving surfactant resistance of amadoriase and composition for measuring HbA1c using the same” (Kikkoman Corporation, priority 2013, dated 2023) are described below.

Data set [1] in a line: Surfactant resistance (residual activity) of CFP-T7 single variants, 0.01% CTAC. To be noted: 30°C, 5 minutes, 30 mM MES/21 mM Tris buffer (pH6.5), crude enzyme. The format is biochemical. As for the experimental part:
Reagent 1 (2.7 ml), reagent 2 (100 μl) and reagent 3 (100 μl) were mixed and preheated at 37° C. for 5 minutes. Then, to the mixture, an enzyme solution (100 μl) was added and thoroughly mixed. Thereafter, the absorbance of the mixture at 555 nm is measured by a spectrophotometer (U-3010, manufactured by Hitachi High-Technologies). Measurement is performed at 555 nm from one minute to three minutes and an absorbance change per minute is specified as the measurement value. A control solution is prepared in the same manner as above except that ion-exchanged water (100 μl) is used in place of reagent 3 (100 μl).
An amadoriase crude enzyme solution or an amadoriase purified sample is diluted with a 30 mM MES/21 mM Tris buffer solution (pH6.5) so as to have a concentration of about 1.0 U/ml. To this, CTAC (for example, manufactured by Tokyo Kasei Kogyo Co., Ltd.) is added so as to obtain a final concentration 0.01% (w/v) or 0.04%. The resultant mixture is heated at 30° C. for 5 minutes. After heating, the mixture is diluted double with a 10 mM phosphate buffer (pH7.0) containing 0.15% BSA to prepare a sample. The enzyme activities of the sample before and after a surfactant treatment are measured by the method described in Section B above. […] In this manner, surfactant resistance is evaluated. […]

The nature of data set [2]: Measurement of fructosyl peptide sample (αFVH) under mixing of CTAC, change in absorbance at 751 nm. The format is biochemical. As for the experimental part:
The purified enzyme of CFP-T7 and CFP-D7 obtained in Example 3-2 was used to measure a sample as shown below. The activity values of CFP-T7 and CFP-D7 were determined using (reagent 1) adjusted to pH 7.0 with αFVH at a final concentration of 5 mM as a substrate according to the method for measuring amadoriase activity.
(Reagent 4) αFVH (125 mg) was dissolved in ion-exchanged water, the volume of the solution was fixed to 10 ml, and thereby a 30 mM substrate solution was obtained. In addition, the resultant was diluted by 1/714 with a CTAC solution to provide a 42 μM αFVH/0% to 0.2% CTAC solution.
(Reagent 6) (50 μl) was added to a mixed solution of 135 μl of (reagent 5) warmed at 37° C. for 5 minutes in advance and 25 μl of the sample prepared in (11) above to start reaction, and absorbance at a wavelength of 751 nm after reaction at 37° C. for 5 minutes was measured using an automated analyzer, Bio Majesty JCA-BM1650 (from JEOL Ltd.). Absorbance (reagent blank) at a wavelength of 751 nm measured by a similar operation for (reagent 4) prepared using ion-exchanged water in place of the substrate solution was used as a control to calculate the amount of change in absorbance (difference) when each sample was measured, using the following equation. The final concentration of a colorimetric substrate, DA-64, was 0.15 mM; the final concentration of αFVH in the case of the presence of a substrate was 5 μM; and the length (optical path) of the cell used for absorbance measurement was 1 cm. Amount of change in absorbance=ΔAes−Ae0
The amount of change in absorbance when αFVH/0% to 0.2% CTAC were used as samples was calculated.
The purified preparations of amadoriases obtained as described above were used as samples to measure αFVH under the mixing of CTAC using PnFX and NvFX as in Example 5.

Another data set has as its system CFP-T7. Nature of the data set: Surfactant resistance of amadoriase during addition of each stabilizer (CFP-T7). The format is biochemical, genus Coniochaeta. To be noted: Stabilizer None, 500 mM HEPES (pH 7.0), 0.01% CTAC. The procedure:
In the above surfactant resistance measuring method, various stabilizers are added and the residual activity of an amadoriase is measured in order to evaluate the effect of the stabilizers. […] The concentration sufficient to provide a buffer capacity to a solution refers to the concentration at which pH is maintained within a predetermined range (for example pH5 to 10, pH6 to 8) without having pH change due to other reagents added to the solution. A concentration insufficient to provide a buffer capacity to a solution refers to the concentration at which pH changes by addition of other reagents to the solution and pH falls outside a particular range. These concentrations vary depending upon the type and amount of other reagents to be added to a solution; however, a person skilled in the art can appropriately determine the concentration by conventional methods. Other conditions and procedure can be the same as in the above surfactant resistance measuring method.
It was studied whether or not the addition of any of various stabilizers enhanced the surfactant resistance of an amadoriase. Phosphoric acid, a tricarboxylic acid (e.g., citric acid), a dicarboxylic acid (e.g., malic acid, maleic acid, citraconic acid, malonic acid, glutaric acid, or tartaric acid), a monpcarboxylic acid (e.g., acetic acid), MES, MOPS, MOPSO, or ammonium sulfate was used as a stabilizer. As a Comparative Example, CHES was used. To prevent change in pH when adding the stabilizer, 500 mM HEPES (pH 7.0) was used as a buffer solution; CFP-T7 purified as described above was used as a sample; the final concentration of CTAC was set at 0.01%; and any of the stabilizers was further added to evaluate the surfactant resistance of CFP-T7 according to the measurement method for surfactant resistance in Example 1. Using a 500 mM HEPES (pH 7.0) buffering agent and CFP-D2 purified as described above as a sample, any of the stabilizers was further added, and the surfactant resistance of CFP-D2 was evaluated according to the measurement method for surfactant resistance in Example 1 although under more harsh surfactant treatment conditions in which the final concentration of CTAC was set at 0.08% and the treatment temperature at 37° C.

B1: CFP-T7: amadoriase derived from the genus Coniochaeta, SEQ ID NO: 1; triple variant with mutations at positions 272, 302 and 388 (protein, listed as Coniochaeta sp.)
chain: MTSNRADTRVIVVGGGGTIGSSTALHLVRSGYAPANITVLDTFEIPSAQSAGHDLNKIMGIRLRNKVDLQMSLEARQMWKEDELFQPFFHNTGRMDCEHTPEGIEDLKKQYQALHDAGAGLEKTHAWLDNEDEILSKMPLLQRDQIQGWKAIWSQDGGWLAAAKAINAIGQFLKERGVKFGFGGAGSFKQPLFDDEGTTCIGVETADGTKYYADKVVLAAGAWSPTLVDLEDQCCSKAWVYAHIQLTPEEAAEYKGVPVVYNGEFGFFFEPDEFGVIKVCDEFPGFSRFKEHQPYGAPSPKRISVPRSHAKHPTDTYPDASEVSIKKAIATFLPRFQDKELFNRALCWCTDTADAALLMCEHPKWKNFILATGDSGHSFKILPNVGKYVVELIEGRLPEEMAYQWRWRPGGDALKSRRAAPPKDLADMPGWKHDPKL
In the case of B1, the “Residual Activity(%)” value in data set [1] worked out at 69.9%. Also, the “Amount of Change in Absorbance at Wavelength of 751 nm under Mixing of Each Concentration of CTAC” value was found to be 0.150 in data set [2] (Mixing of CTAC 0%, as in Example 5, Table 7); 0.150 in data set [2] (Mixing of CTAC 0%, αFVH final 5 μM, 37°C, 5 minutes, Table 5); 0.111 in data set [2] (Mixing of CTAC 0.005%, αFVH final 5 μM, 37°C, 5 minutes, Table 5); 0.077 in data set [2] (Mixing of CTAC 0.01%, as in Example 5, Table 7); 0.077 in data set [2] (Mixing of CTAC 0.01%, αFVH final 5 μM, 37°C, 5 minutes, Table 5); 0.031 in data set [2] (Mixing of CTAC 0.02%, as in Example 5, Table 7). Moreover, the “Amount of Change in Absorbance at Wavelength of 751 nm under Mixing of Each Concentration of CTAC” value in data set [2] (Mixing of CTAC 0.02%, αFVH final 5 μM, 37°C, 5 minutes, Table 5) is reported as 0.031; in data set [2] (Mixing of CTAC 0.04%, as in Example 5, Table 7), 0.005; in data set [2] (Mixing of CTAC 0.04%, αFVH final 5 μM, 37°C, 5 minutes, Table 5), 0.005. Moreover, the “CFP-T7 Residual Activity (%)” value in the data set with CFP-T7 (Table 9-1) is reported as 4.7%; in the data set with CFP-T7 (Table 9-2), 3.1%.
